The text below walks through data of patent publication US20250152746A1, “BASE EDITING OF ANGPTL3 AND METHODS OF USING SAME FOR TREATMENT OF DISEASE” (Verve Therapeutics, Inc., priority 2020, published 2025).

Read-outs that look alike come from different tables or passages of the source. In the oligonucleotide strings, read from the 5' end, every base follows the letter of its sugar. An asterisk marks phosphorothioate; unmarked linkages are phosphodiester. Other units and linkages are bracketed, terminal groups are in braces. A string of capitals states the bases alone. m = 2'-O-methyl; r = 2'-OH (RNA)

Series [1] has as its system ANGPTL3 gene. As to the kind of experiment: ANGPTL3 gRNA/SpCas9 editing in primary cynomolgus hepatocytes (Table 3). In kind it is cell-based, cynomolgus monkey. The method, then:
(§1) In set of experiments, PCSK9 gRNAs were co-transfected with an equivalent amount (1:1 ratio by weight) of in vitro transcribed commercially available SpCas9 mRNA MS002 purchased from TriLink Biotechnologies into primary human hepatocytes at 2500, 500, or 100 ng/RNA/mL and processed as described in detailed methods. Extracted genomic DNA was analyzed for gene editing at the target site with next-generation sequencing of PCR amplicons generated around the target sites. Samples were prepared using the Nextera XT DNA library preparation kit (Illumina) according to the manufacturer's protocol. Briefly, two rounds of PCR were performed first to amplify the region of interest and second to add DNA sequences required for next generation sequencing and sample identification to the initial product. The final amplicon was sequenced on the Illumina MiSeq instrument according to the manufacturer's protocol. A wide range of editing activities (Table 2) were observed. In a second set of experiments, ANGPTL3 gRNAs were co-transfected with an equivalent amount of in vitro transcribed SpCas9 mRNA (1:1 ratio by weight) into primary human hepatocytes and processed and analyzed similarly (Table 3).
(§2) Plating, culturing, and transfection of primary hepatocytes. Primary human liver hepatocytes (PHH) and primary cynomolgus liver hepatocytes (PCH) from BioIVT were cultured per the manufacturer's protocol. Briefly, primary human hepatocytes and primary cyno hepatocytes were obtained as frozen aliquots from BioIVT. Four lots of primary human hepatocytes, each derived from a de-identified individual donor, were used for the experiments: STL (main donor) was used for all experiments, including screening experiments and off-target experiments; HLY, JLP, and TLY were used for off-target experiments. The HFG lot of primary cyno hepatocytes were used for experiments. Following the manufacturer's instructions, cells were thawed and rinsed prior to plating in 24-well plates that had been coated with bovine collagen overnight, with a density of approximate 350,000 cells/well in INVITROGRO hepatocyte medium supplemented with TORPEDO antibiotic mix (BioIVT). The cells were thawed and resuspended in hepatocyte thawing medium followed by centrifugation at 100 g for 10 min at 4° C. The supernatant was discarded, and the pelleted cells resuspended in hepatocyte plating medium. Each vial contains approximately 5 million cells that were used for plating one 24-well plate. Plated cells were allowed to settle and adhere for 4-6 h in a tissue culture incubator at 37° C. under 5% CO2 atmosphere. After incubation, cells were checked for monolayer formation. The incubating media were then replaced with fresh hepatocyte maintenance media (complete INVITROGRO medium obtained from BioIVT, the cell line provider). The cells thus became ready for transfection. Each of the gRNAs were co-transfected with an equivalent amount of in vitro transcribed ABE8.8 mRNA (1:1 ratio by molecular weight) into primary human hepatocytes via MessengerMax reagent (Lipofectamine), using various dilutions to assess for editing activity at different concentrations of test article. MessengerMAX from Thermo Fisher is used for transfection. Solution A: desired amount of guide RNA is mixed with 1:1 wt ratio of mRNA in OptiMEM. Solution B: MessengerMAX in OptiMEM. After mixing solutions A and B, the mixture was incubated at room temperature for 20 min. 60 μL of the incubated solution was added dropwise to each cell wells. For protospacer sequences that were a perfect match to the corresponding cynomolgous monkey PCSK9 or ANGPTL3 gene sequence, each gRNA was also co-transfected with an equivalent amount of ABE8.8 mRNA (1:1 ratio by molecular weight) into primary cynomolgous hepatocytes, and followed the same transfection protocol. The cells were then allowed to remain at 37° C. for 3 days. […]

Series [2] relates to ANGPTL3 gene. As to the kind of experiment: ANGPTL3 gRNA/SpCas9 editing in primary human hepatocytes (Table 3). The class given is cell-based. As to the method: as §1, §2
In the next series the test system is PCSK9 gene splice site. The class given is cell-based, human. To be noted: for Editing % at Position 6: Human Primary Hepatocytes, gRNA co-transfected with ABE8.8 mRNA 1:1 by weight. As to the method:
PCSK9 gRNAs were co-transfected with an equivalent amount of in vitro transcribed ABE8.8 mRNA MA002 (1:1 ratio by weight) into primary hepatocytes and processed as described in detailed methods. In one set of experiments, extracted genomic DNA was analyzed for base editing of the target splice site with next-generation sequencing of PCR amplicons generated around the target sites. Samples were prepared using the Nextera XT DNA library preparation kit (Illumina) according to the manufacturer's protocol. Briefly, two rounds of PCR were performed first to amplify the region of interest and second to add DNA sequences required for next generation sequencing and sample identification to the initial product. The final amplicon was sequenced on the Illumina MiSeq instrument according to the manufacturer's protocol.
Similarly, three gRNAs (GA098, GA099, GA100) were synthesized matching the 5′-[…]-3′ (SEQ ID NO: 15) (GA091) human protospacer sequence, as well as four gRNAs (GA067/GA101, GA102, GA103, GA347) matching the 5′-[…]-3′ (SEQ ID NO: 14) (GA067) cynomolgus protospacer sequence, but with more extensive chemical modifications of various kinds (Table 1). GA066 and GA095 contain the same chemical composition and modification pattern, as do GA067 and GA101 with one another. […] Each of the gRNAs described in Table 8, with an equivalent amount of in vitro transcribed ABE8.8 mRNA MA002 (1:1 ratio by weight), were co-transfected into primary human hepatocytes and primary cynomolgus hepatocytes via MessengerMax reagent, using various dilutions to assess for editing activity at different concentrations of test article. Three days after transfection, genomic DNA was harvested from the hepatocytes, and then assessed for base editing of the target splice site with next-generation sequencing.
Modifications and/or truncations to either the spacer or tracr portion of the gRNA was assessed by alteration of the GA066 spacer (5′-[…]-3′ (SEQ ID NO: 13)) (Table 12). […] Each of the gRNAs with an equivalent amount of in vitro transcribed ABE8.8 mRNA (1:1 ratio by weight) were co-transfected into primary human hepatocytes and primary cynomolgus hepatocytes and processed as described in detailed methods. […]

B1: GA108: ANGPTL3 gRNA; protospacer TCCCAACTGAAGGAGGCCAT (SEQ ID NO: 106) (nucleic acid)
guide: UCCCAACTGAAGGAGGCCATGTTTTAGAGCTAGAAATAGCAAGTTAAAATAAGGCTAGTCCGTTATCAACTTGAAAAAGTGGCACCGAGTCGGTGCTTTT
modifications: 2'-O-methyl at 1, 2, other sugars, backbone and T or U not given here; further chemistry not fully specified
Turning to B1, in the series with ANGPTL3 gene [1], the “Cyno Primary Hepatocyte Editing % 100 ng/mL” value was found to be 4.11% and the “Cyno Primary Hepatocyte Editing % 500 ng/ml” value turned out to be 15.49%. Also, in the series on ANGPTL3 gene [2], the “Human Primary Hepatocyte Editing % 100 ng/ml” value amounted to 4.95% and the “Human Primary Hepatocyte Editing % 500 ng/mL” value is reported as 19.43%.

B2: GA110: ANGPTL3 gRNA; protospacer GACCATGTCCCAACTGAAGG (SEQ ID NO: 108) (nucleic acid)
guide: GACCATGTCCCAACTGAAGGGTTTTAGAGCTAGAAATAGCAAGTTAAAATAAGGCTAGTCCGTTATCAACTTGAAAAAGTGGCACCGAGTCGGTGCTTTT
modifications: 2'-O-methyl at 1, 2, other sugars and backbone not given here; further chemistry not fully specified
For B2, in the series with ANGPTL3 gene [1], the “Cyno Primary Hepatocyte Editing % 100 ng/mL” value amounted to 8.59% and the “Cyno Primary Hepatocyte Editing % 500 ng/ml” value worked out at 15.99%. Besides, in the series on ANGPTL3 gene [2], the “Human Primary Hepatocyte Editing % 100 ng/ml” value is recorded as 5.37% and the “Human Primary Hepatocyte Editing % 500 ng/mL” value is 13.63%.

B3: GA090: PCSK9 gRNA for ABE8.8 splice site editing, Human/Cyno (nucleic acid)
guide: GCAGGTGACCGTGGCCTGCGGTTTTAGAGCTAGAAATAGCAAGTTAAAATAAGGCTAGTCCGTTATCAACTTGAAAAAGTGGCACCGAGTCGGTGCTTTT
modifications: listed as RNA; modified_base 1: mod_base = OTHER; note = 2'-O-Methyl-guanosine phosphorothioate; modified_base 2: mod_base = OTHER; note = 2'-O-Methyl-cytidine phosphorothioate; modified_b
notes: PCSK9 gRNA for ABE8.8 splice site editing, Human/Cyno
On to B3, for which, in the series on PCSK9 gene splice site, the “Human Primary Hepatocytes-splice site editing % 1250 ng/mL” value turned out to be 0.3%, the “Human Primary Hepatocytes-splice site editing % 2500 ng/mL” value was determined as 0.5% and the “Human Primary Hepatocytes-splice site editing % 5000 ng/mL” value is 0.4%.

B4: GA109: ANGPTL3 gRNA; protospacer GGCCTCCTTCAGTTGGGACA (SEQ ID NO: 107) (nucleic acid)
guide: GGCCTCCTTCAGTTGGGACAGTTTTAGAGCTAGAAATAGCAAGTTAAAATAAGGCTAGTCCGTTATCAACTTGAAAAAGTGGCACCGAGTCGGTGCTTTT
modifications: 2'-O-methyl at 1, 2, other sugars and backbone not given here; further chemistry not fully specified
Consider B4, for which, in the series with ANGPTL3 gene [1], the “Cyno Primary Hepatocyte Editing % 100 ng/mL” value is on record as 4.15% and the “Cyno Primary Hepatocyte Editing % 500 ng/ml” value is listed as 15.11%. For the same molecule, in the series with ANGPTL3 gene [2], the “Human Primary Hepatocyte Editing % 100 ng/ml” value is 6.60% and the “Human Primary Hepatocyte Editing % 500 ng/mL” value turned out to be 18.07%.

B5: GA089: PCSK9 gRNA for ABE8.8 splice site editing, Human/Cyno (nucleic acid)
guide: CCCCAGGCTGCAGCTCCCACGTTTTAGAGCTAGAAATAGCAAGTTAAAATAAGGCTAGTCCGTTATCAACTTGAAAAAGTGGCACCGAGTCGGTGCTTTT
modifications: 2'-O-methyl at 1, 2, other sugars and backbone not given here; further chemistry not fully specified
notes: as for B3
In the case of B5, in the series with PCSK9 gene splice site, the “Human Primary Hepatocytes-splice site editing % 1250 ng/mL” value is on record as 5.4%, the “Human Primary Hepatocytes-splice site editing % 2500 ng/mL” value is on record as 14.1% and the “Human Primary Hepatocytes-splice site editing % 5000 ng/mL” value is recorded as 18.1%.

B6: GA129: ANGPTL3 gRNA; protospacer AGTTCTTGGTGCTCTTGGCT (SEQ ID NO: 127) (nucleic acid)
guide: AGTTCTTGGTGCTCTTGGCTGTTTTAGAGCTAGAAATAGCAAGTTAAAATAAGGCTAGTCCGTTATCAACTTGAAAAAGTGGCACCGAGTCGGTGCTTTT
modifications: 2'-O-methyl at 1, 2, other sugars and backbone not given here; further chemistry not fully specified
Turning to B6, in the series with ANGPTL3 gene [1], the “Cyno Primary Hepatocyte Editing % 100 ng/mL” value is 5.36% and the “Cyno Primary Hepatocyte Editing % 500 ng/ml” value is 20.06%.

B7: GA391 (nucleic acid)
guide: mC*mC*rGrCrArCrCrUrUrGrGrCrGrCrArGrCrGrGmGrUrUrUrUrArGmAmGmCmUmArGmAmAmAmUmAmGmCmAmArGrUrUmArAmArAmUrAmAmGmGmCmUmArGrUmCmCrGrUrUrAmUmCrArAmCmUmUrGmAmAmAmAmAmGmUmGrGmCmAmCmCmGmAmGmUmCmGmGmUmGmCmU*mU*mU*mU
Consider B7, for which the “Editing % at Position 6” value is reported as 16.86% in the series with PCSK9 gene splice site (312.5 ng/mL, rep1); 15.78% in the series with PCSK9 gene splice site (312.5 ng/mL, rep2); 27.12% in the series with PCSK9 gene splice site (625 ng/mL, rep1); 18.67% in the series with PCSK9 gene splice site (625 ng/mL, rep2); 25.43% in the series with PCSK9 gene splice site (1250 ng/mL, rep1); 27.3% in the series with PCSK9 gene splice site (1250 ng/mL, rep2). Further, the “Editing % at Position 6” value with PCSK9 gene splice site (2500 ng/mL, rep1) is given as 25.58%; in the series with PCSK9 gene splice site (2500 ng/mL, rep2) it was 30.06%.

B8: GA115: ANGPTL3 gRNA; protospacer AACATAGCAAATCTTGATTT (SEQ ID NO: 113) (nucleic acid)
guide: AACATAGCAAATCTTGATTTGTTTTAGAGCTAGAAATAGCAAGTTAAAATAAGGCTAGTCCGTTATCAACTTGAAAAAGTGGCACCGAGTCGGTGCTTTT
modifications: 2'-O-methyl at 1, 2, other sugars and backbone not given here; further chemistry not fully specified
On to B8, for which, in the series with ANGPTL3 gene [1], the “Cyno Primary Hepatocyte Editing % 100 ng/mL” value was 12.58% and the “Cyno Primary Hepatocyte Editing % 500 ng/ml” value came out at 25.51%.

B9: GA111: ANGPTL3 gRNA; protospacer GCCAATGGCCTCCTTCAGTT (SEQ ID NO: 109) (nucleic acid)
guide: GCCAATGGCCTCCTTCAGTTGTTTTAGAGCTAGAAATAGCAAGTTAAAATAAGGCTAGTCCGTTATCAACTTGAAAAAGTGGCACCGAGTCGGTGCTTTT
modifications: 2'-O-methyl at 1, 2, other sugars and backbone not given here; further chemistry not fully specified
Turning to B9, in the series with ANGPTL3 gene [1], the “Cyno Primary Hepatocyte Editing % 100 ng/mL” value is 22.61% and the “Cyno Primary Hepatocyte Editing % 500 ng/ml” value came to 28.98%. Besides, in the series on ANGPTL3 gene [2], the “Human Primary Hepatocyte Editing % 100 ng/ml” value is listed as 10.72% and the “Human Primary Hepatocyte Editing % 500 ng/mL” value turned out to be 24.08%.
